Source: patent publication EP4324846A1 (Eberhard Karls Universität Tübingen, Medizinische Fakultät, dated 2024)

B1: dd3-1 (designed binder)
chain: ANGIGIGEFKDSLSIWAWNIKHFKNARSISGDLHILPVAFRGDSFTHTPPLEPKELEILKTVKEITGYLLVQAWPENRTDLHAFENLEIIRGRTKQHGQFSLAVVSLNVTSLGLRSLKEISDGDVIMSGNKNLKMANEMNWKKMFGTSGQKTKIISNRGE
notes: Expressed in E. coli from pET-28a(+) and purified on a HisTrap column; also called design
B2: HB-EGF (R&D Systems 259-HE-050/CF) (ligand, UniProt Q99075 63-148, looked up)
chain: DLQEADLDLLRVTLSSKPQALATPNKEEHGKRKKKGKGLGKKRDPCLRKYKDFCIHGECKYVKELRAPSCICHPGYHGERCHGLSL
notes: Immobilized on a CM5 chip by amine coupling

Legend:
[1] = target: T1, EGF (Peprotech AF-100-15) (UniProt P01133 971-1023); assay: SPR, EGF immobilized; reference d3-wt
T1 construct: Immobilized on a CM5 chip by amine coupling; Also added at 400 pM in the A431 proliferation assay; also called epidermal growth factor

[2] = target: T1, EGF (Peprotech AF-100-15); assay: SPR (Biacore X100), EGF immobilized on CM5, multi-cycle kinetics
[3] = target: T2, d3-wt (human EGFR domain 3) (human, UniProt P00533 337-504, limits assumed); assay: SPR (Biacore X100), HB-EGF immobilized on CM5, multi-cycle kinetics
T2 construct: Expressed in E. coli from pET-28a(+) and purified on a HisTrap column; Monomeric fraction used; also called wild type d3; wild-type d3 domain

T1 sequence (P01133 971-1023 limits assumed): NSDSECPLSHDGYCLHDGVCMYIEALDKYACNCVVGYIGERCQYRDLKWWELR

Binder | fold tighter binding than d3-wt [1] [fold] | Kd [2] [nM] | Kd [3] [nM]
B1 | 5 | 10 | –
B2 | – | – | 263
